T1: human FLT3 (hFLT3) (human, UniProt P36888 27-543)
T1 construct: also called huFlt3; Fms-Like Tyrosine Kinase 3
T1 sequence (looked up): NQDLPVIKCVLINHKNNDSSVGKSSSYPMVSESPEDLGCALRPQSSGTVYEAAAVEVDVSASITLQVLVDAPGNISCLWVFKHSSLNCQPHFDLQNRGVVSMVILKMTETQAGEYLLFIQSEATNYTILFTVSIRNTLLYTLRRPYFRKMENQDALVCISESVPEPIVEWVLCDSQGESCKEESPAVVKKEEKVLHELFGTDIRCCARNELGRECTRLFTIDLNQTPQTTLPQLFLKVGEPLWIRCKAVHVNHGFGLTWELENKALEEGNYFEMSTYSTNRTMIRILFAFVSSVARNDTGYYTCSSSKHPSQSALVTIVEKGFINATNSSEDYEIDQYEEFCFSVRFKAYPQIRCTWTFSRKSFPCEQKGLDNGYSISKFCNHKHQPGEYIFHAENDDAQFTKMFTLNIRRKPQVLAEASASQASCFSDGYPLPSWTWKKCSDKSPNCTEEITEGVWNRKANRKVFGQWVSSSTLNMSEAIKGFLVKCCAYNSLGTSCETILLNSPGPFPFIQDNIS

T2: mouse FLT3 (mFlt3) (mouse (printed as mFlt3), UniProt Q00342 28-544, limits assumed)
T2 construct: Construct not described
T2 sequence (looked up): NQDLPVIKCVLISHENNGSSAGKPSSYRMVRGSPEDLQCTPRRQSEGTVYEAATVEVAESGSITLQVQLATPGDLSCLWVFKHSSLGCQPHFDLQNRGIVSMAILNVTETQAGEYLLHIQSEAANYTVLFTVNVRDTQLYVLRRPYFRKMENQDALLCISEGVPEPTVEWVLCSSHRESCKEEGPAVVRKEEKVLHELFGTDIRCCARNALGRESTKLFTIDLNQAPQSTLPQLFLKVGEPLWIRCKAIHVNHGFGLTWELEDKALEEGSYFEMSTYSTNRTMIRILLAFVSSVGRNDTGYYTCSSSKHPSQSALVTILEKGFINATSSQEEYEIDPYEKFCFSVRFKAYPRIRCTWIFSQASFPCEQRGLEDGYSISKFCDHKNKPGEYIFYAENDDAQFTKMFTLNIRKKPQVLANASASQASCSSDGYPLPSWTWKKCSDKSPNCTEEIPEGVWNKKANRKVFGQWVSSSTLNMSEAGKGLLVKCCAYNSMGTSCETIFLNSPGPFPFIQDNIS

B1: P9B5 (IgG format) (antibody, V domains shown)
VH: EVQLLESGGGLVQPGGSLRLSCAASGFIFASYAMSWVRQAPGKGLEWVSEISSSGGSTTYADSVKGRFTISRDNSKNTLYLQMNSLRAEDTAVYYCARDRVMAGLGYDPFDYWGQGTLVTVSS
VL: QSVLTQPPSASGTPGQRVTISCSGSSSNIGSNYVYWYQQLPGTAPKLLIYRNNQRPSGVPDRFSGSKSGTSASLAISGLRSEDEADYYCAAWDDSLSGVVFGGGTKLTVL
notes: IgG format, captured by anti-human Fc
B2: P7F9 (IgG format) (antibody, V domains shown)
VH: EVQLLESGGGLVQPGGSLRLSCAASGFTFSSYAMSWVRQAPGKGLEWVSAIGGSGGSTYYADSVKGRFTISRDNSKNTLYLQMNSLRAEDTAMYYCARDYYAFSDPAYGGMDVWGQGTLVTVSS
VL: NFMLTQPHSVSESPGKTVTISCTRSSGSIASNYVQWYQQKPGQAPVLVVYDDSDRPSGIPERFSGSNSGNTATLTISRVEAGDEADYYCQVWDSSSDHWVFGGGTKLTVL
notes: as for B1
B3: P7H3 (IgG format) (antibody, V domains shown)
VH: EVQLLESGGGLVQPGGSLRLSCAASGFTFSSYAMHWVRQAPGKGLEWVSAISGSGGSTYYADSVKGRFTISRDNSKNTLYLQMNSLRAEDTAVYYCARGTRWWWGDAFDHWGQGTLVTVSS
VL: QSVLTQPPSVSVAPGKTARITCGGNNIGSKSVHWYQQKPGQAPVLVIYYDSDRPSGIPERFSGSNSGNTATLTISRVEAGDEADYYCQVWDSSTAWVFGGGTKLTVL
notes: as for B1
B4: P5A3 (IgG format) (antibody, V domains shown)
VH: QVQLVQSGAEVKKPGSSVKVSCKASGGTFSSYYIGWVRQAPGQGLEWMGGIIPWFGTANYAQKFQGRVTITADKSTNTAYMELSSLRSEDTAVYYCAADHHDSPSGYTSGGFDVWGQGTLVTVSS
VL: QSALTQPASVSGSPGQSITISCTGTSSDVGGYNYVSWYQQHPGKAPKLMIYEVSKRPSGVPDRFSGSKSGNTASLTVSGLQAEDEADYYCSSYAGSNTVVFGGGTKLTVL
notes: as for B1

What follows are binders tested against T1, human FLT3 (hFLT3) (assay: SPR (Biacore T200), 37 C; IgG captured on anti-human Fc, hFLT3 as analyte).
Procedure: All experiments were performed on a Biacore T200 surface Plasmon resonance biosensor (GE Lifesciences, Piscataway N.J.).
The sensor chip preparation was performed at 25° C. with a running buffer of 10 mM HEPES, 150 mM NaCl, 0.05% (v/v) Tween-20, pH 7.4. An anti-human Fc sensor chip was made by activating all flow cells of a Biacore CM4 sensor chip with a 1:1 (v/v) mixture of 400 mM EDC and 100 mM NHS for 7 minutes, at a flow rate of 10 μL/min. An anti-human Fc reagent (Goat Anti-Human IgG Fc, Southern Biotech Catalog #2081-01) was diluted to 30 μg/mL in 10 mM Sodium Acetate pH 4.5 and injected on all flow cells for 7 minutes at 20 μL/min. All flow cells were blocked with 100 mM ethylenediamine in 150 mM Borate buffer pH 8.5 for 7 minutes at 10 μL/min.
The experiments were performed at 37° C. using a running buffer of 10 mM HEPES, 150 mM NaCl, 0.05% (v/v) Tween-20, pH 7.4, 1 mg/mL BSA. FLT3 antibodies were captured from undiluted supernatants onto downstream flow cells (flow cells 2, 3 and 4) at a flow rate of 10 μL/min for 1 minute. Different antibodies were captured on each flow cell. Flow cell 1 was used as a reference surface. Following capture of FLT3 antibodies, analyte (buffer, hFLT3) was injected at 30 μL/min on all flow cells for two minutes. After the analyte injection, dissociation was monitored for 10 minutes followed by regeneration of all flow cells with three 1-minute injections of 75 mM Phosphoric Acid. For each captured FLT3 antibody, the following analyte injections were performed: buffer, 11 nM hFLT3, 33 nM hFLT3, 100 nM hFLT3 and 300 nM hFLT3. Buffer cycles were collected for each captured FLT3 antibody for double-referencing purposes (double-referencing as described in Myszka, D. G. Improving biosensor analysis. J. Mol. Recognit. 12, 279-284 (1999)). The double-referenced sensorgrams were fit globally to a simple 1:1 Langmuir with mass transport binding model.

B1 and B2 are within 1.5-fold of each other in Kd: 11 nM for the first, 12 nM for the second.

Going from B3 to B4, the Kd rises from 2 nM to 102 nM (51-fold).

Compared with B1, B2 is 2.8-fold higher in koff: 0.00047 s⁻¹ for the first, 0.0013 s⁻¹ for the second.

First: B3
Second: B4
The koff of the first is 5.6-fold lower: 0.0018 s⁻¹ for the first, 0.01 s⁻¹ for the second.

Compared with B1, B2 is 2.6-fold higher in kon: 42000 M⁻¹ s⁻¹ for the first, 110000 M⁻¹ s⁻¹ for the second.

Compared with B3, B4 is 10-fold lower in kon: 990000 M⁻¹ s⁻¹ for the first, 98000 M⁻¹ s⁻¹ for the second.

First: B1
Second: B2
The t1/2 of the first is 2.7-fold higher: 24.4 min for the first, 8.9 min for the second.

Going from B3 to B4, the t1/2 falls from 6.6 min to 1.2 min (5.5-fold).

Each binder was assayed against T2, mouse FLT3 (mFlt3) (assay: SPR, Table 6, IgG format, mFlt3 column; set-up for mFlt3 not described).

First: B1
Second: B2
The Kd of the first is 9.2-fold lower: 1.5 nM for the first, 13.8 nM for the second. The first binds more tightly here.

First: B3
Second: B4
The Kd of the first is 21-fold lower: 0.9 nM for the first, 19.3 nM for the second.
